{"source": "patent US20160222130A1", "about": "(Astellas, published 2016)", "binders": {"B1": {"name": "TIE-1-Igγ1-LALA (antibody, human IgG1, kappa, L234A L235A)", "heavy": "not shown", "light": "DIQMTQSPSSLSASVGDRVTITCRSSQSLLHSHRYNYLDWYQQKPGKAPKLLIYLGSNRASGVPSRFSGSGSGTDFTLTISSVQPEDFATYYCMQTLQTPLTFGQGTKVEIKRTVAAPSVFIFPPSDEQLKSGTASVVCLLNNFYPREAKVQWKVDNALQSGNSQESVTEQDSKDSTYSLSSTLTLSKADYEKHKVYACEVTHQGLSSPVTKSFNRGEC", "notes": "Tandem tetravalent format: two heavy chains (VH-CH1-linker-VH-CH1-CH2-CH3) and four light chains; also called tetravalent anti-human Tie2 antibody with L234A, L235A and P331S"}, "B2": {"name": "fully human 2-16A2-Fab (Fab, V domains shown)", "VH": "EVQLVESGGGLVQPGGSLRLSCAASGFTFDDYAMHWVRQAPGKGLEWVAGISWNSGSIVYADSVKGRFTISRDNSKNTLYLQMNSLRAEDTAVYYCAKDIREQLVEDAFDIWGQGTLVTVSS", "VL": "DIQMTQSPSSLSASVGDRVTITCRSSQSLLHSHRYNYLDWYQQKPGKAPKLLIYLGSNRASGVPSRFSGSGSGTDFTLTISSVQPEDFATYYCMQTLQTPLTFGQGTKVEIKR", "notes": "also called Fab of the fully human 2-16A2"}}, "key": {"[1]": {"molecular_target": "T1, Human Tie2 (1-452)A2-Fc (human, UniProt Q02763 23-452)", "T1 construct": "range 1-452", "T1 sequence (Q02763 other isoform, or with tags, fused parts or gaps limits assumed, form in doubt)": "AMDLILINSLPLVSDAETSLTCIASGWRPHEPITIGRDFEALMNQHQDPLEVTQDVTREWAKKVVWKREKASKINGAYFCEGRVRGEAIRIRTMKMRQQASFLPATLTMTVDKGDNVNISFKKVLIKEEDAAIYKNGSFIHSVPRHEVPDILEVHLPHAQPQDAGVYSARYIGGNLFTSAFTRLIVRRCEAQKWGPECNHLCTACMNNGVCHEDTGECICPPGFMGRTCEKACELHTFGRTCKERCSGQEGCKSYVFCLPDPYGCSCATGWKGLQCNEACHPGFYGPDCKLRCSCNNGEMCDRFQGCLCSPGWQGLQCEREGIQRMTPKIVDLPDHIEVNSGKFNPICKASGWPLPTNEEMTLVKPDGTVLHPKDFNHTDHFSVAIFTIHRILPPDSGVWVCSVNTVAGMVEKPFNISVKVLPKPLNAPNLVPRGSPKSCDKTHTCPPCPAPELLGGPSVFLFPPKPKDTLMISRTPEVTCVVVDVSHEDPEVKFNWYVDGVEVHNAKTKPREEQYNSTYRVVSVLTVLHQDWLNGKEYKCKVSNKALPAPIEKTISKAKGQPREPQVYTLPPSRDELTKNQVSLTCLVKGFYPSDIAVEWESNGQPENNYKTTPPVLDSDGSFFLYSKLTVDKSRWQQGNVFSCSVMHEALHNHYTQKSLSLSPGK", "experiment": "ELISA; Tie2-Fc coated at 1 ug/mL; signal at 100 ng/mL antibody vs convergence value on the parent", "experimental": "(§1) The next day, the immobilized solution was removed, and the plate was washed with a TBS-T solution, and incubated for 60 minutes by the addition of 50 μL of a Blocker™ Casein in TBS (Thermo Fisher Scientific Inc., 37532) to perform blocking. The resultant was washed with a TBS-T solution, and TIE-1-Igγ1-LALA, diluted with 0.05% Tween 20 (Nacalai Tesque Inc., 28353-85)—containing Blocker™ Casein in TBS from 0.03 ng/mL to 100 ng/mL through eight steps, was added thereto in the amount of 20 μL per well. The resultant was incubated at room temperature for 90 minutes and then washed with a TBS-T solution three times, and 20 μL of a biotin-labeled anti-human kappa light chain antibody, which had been diluted to 0.1 μg/mL with 0.05% Tween 20-containing Blocker™ Casein in TBS, was added thereto. The resultant was incubated at room temperature for 60 minutes and then washed with a TBS-T solution three times, and 20 μL of alkaline phosphatase-labeled streptavidin, which had been diluted to 0.1 μg/mL with 0.05% Tween 20-containing Blocker™ Casein in TBS, was added thereto. The resultant was incubated at room temperature for 60 minutes and then washed with a TBS-T solution three times, and 50 μL of Chemiluminescent Ultra Sensitive AP Microwell and/or Membrane Substrate (450 nm), which had been 5-fold diluted with 1 mM MgCl₂-containing 20 mM TBS (pH 9.8) as a substrate, was added thereto. The resultant was incubated at room temperature under light-shielding for 40 minutes, and then luminescent intensity thereof was measured with an EnVision™ multi-label counter. The EC₅₀ value of TIE-1-Igγ1-LALA with respect to the human Tie2 (1-452)-Fc chimeric protein and 23 mutant proteins thereof were calculated. The relative value of luminescent intensity of 100 ng/mL TIE-1-Igγ1-LALA as maximum concentration point with respect to human Tie2 (1-452)-Fc chimeric protein and 23 mutant proteins thereof when the convergence value of the sigmoid curve of TIE-1-Igγ1-LALA binding to the human Tie2 (1-452)-Fc chimeric protein which was taken as 100% was calculated (Table 8 and Table 9). Further, the EC₅₀ value and the convergence value were calculated by Sigmoid-Emax model non-linear regression analysis."}, "[2]": {"molecular_target": "T2, Human Tie2 (1-452)A3-Fc (human, UniProt Q02763 23-452)", "T2 construct": "range 1-452", "T2 sequence (Q02763 other isoform, or with tags, fused parts or gaps limits assumed, form in doubt)": "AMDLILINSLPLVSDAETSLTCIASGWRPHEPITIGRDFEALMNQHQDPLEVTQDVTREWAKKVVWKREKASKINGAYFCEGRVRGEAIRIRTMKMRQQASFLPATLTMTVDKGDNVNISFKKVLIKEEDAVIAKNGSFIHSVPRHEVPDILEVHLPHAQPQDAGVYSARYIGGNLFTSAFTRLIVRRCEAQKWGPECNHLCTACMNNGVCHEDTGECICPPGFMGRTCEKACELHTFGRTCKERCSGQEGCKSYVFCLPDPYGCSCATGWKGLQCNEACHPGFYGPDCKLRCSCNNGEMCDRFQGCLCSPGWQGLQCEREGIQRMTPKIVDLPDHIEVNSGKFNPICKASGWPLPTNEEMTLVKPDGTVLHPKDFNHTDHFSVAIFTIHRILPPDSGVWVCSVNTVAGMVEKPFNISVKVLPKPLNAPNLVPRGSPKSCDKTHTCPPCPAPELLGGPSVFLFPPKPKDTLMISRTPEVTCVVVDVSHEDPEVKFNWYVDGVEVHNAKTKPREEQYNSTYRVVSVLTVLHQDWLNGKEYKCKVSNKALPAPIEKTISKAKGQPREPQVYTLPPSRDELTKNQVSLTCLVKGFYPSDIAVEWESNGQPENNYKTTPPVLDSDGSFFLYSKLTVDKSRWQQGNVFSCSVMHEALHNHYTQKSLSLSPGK", "experiment": "ELISA; Tie2-Fc coated at 1 ug/mL; signal at 100 ng/mL antibody vs convergence value on the parent", "experimental": "as §1"}, "[3]": {"molecular_target": "T3, Human Tie2 (1-452)A4-Fc (human, UniProt Q02763 23-452)", "T3 construct": "range 1-452", "T3 sequence (Q02763 other isoform, or with tags, fused parts or gaps limits assumed, form in doubt)": "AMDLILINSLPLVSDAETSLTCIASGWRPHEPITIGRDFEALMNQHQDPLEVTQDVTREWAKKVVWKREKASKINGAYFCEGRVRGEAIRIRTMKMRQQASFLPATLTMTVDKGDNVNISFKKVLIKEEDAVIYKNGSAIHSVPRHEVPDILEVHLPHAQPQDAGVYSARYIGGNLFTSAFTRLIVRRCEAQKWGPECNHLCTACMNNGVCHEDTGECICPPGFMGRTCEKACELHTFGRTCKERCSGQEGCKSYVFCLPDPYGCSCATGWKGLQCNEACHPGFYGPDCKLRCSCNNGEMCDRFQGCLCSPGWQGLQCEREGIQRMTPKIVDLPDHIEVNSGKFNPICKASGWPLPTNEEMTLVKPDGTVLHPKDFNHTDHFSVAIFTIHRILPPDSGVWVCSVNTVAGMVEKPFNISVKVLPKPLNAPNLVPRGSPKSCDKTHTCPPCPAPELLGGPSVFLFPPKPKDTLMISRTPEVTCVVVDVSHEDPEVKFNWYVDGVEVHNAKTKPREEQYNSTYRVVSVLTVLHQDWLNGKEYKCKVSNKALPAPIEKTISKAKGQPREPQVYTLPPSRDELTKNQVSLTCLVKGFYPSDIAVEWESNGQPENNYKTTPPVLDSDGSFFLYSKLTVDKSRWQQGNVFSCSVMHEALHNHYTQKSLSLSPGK", "experiment": "ELISA; Tie2-Fc coated at 1 ug/mL; signal at 100 ng/mL antibody vs convergence value on the parent", "experimental": "as §1"}, "[4]": {"molecular_target": "T4, Human Tie2 (1-452)A5-Fc (human, UniProt Q02763 23-452)", "T4 construct": "range 1-452", "T4 sequence (Q02763 other isoform, or with tags, fused parts or gaps limits assumed, form in doubt)": "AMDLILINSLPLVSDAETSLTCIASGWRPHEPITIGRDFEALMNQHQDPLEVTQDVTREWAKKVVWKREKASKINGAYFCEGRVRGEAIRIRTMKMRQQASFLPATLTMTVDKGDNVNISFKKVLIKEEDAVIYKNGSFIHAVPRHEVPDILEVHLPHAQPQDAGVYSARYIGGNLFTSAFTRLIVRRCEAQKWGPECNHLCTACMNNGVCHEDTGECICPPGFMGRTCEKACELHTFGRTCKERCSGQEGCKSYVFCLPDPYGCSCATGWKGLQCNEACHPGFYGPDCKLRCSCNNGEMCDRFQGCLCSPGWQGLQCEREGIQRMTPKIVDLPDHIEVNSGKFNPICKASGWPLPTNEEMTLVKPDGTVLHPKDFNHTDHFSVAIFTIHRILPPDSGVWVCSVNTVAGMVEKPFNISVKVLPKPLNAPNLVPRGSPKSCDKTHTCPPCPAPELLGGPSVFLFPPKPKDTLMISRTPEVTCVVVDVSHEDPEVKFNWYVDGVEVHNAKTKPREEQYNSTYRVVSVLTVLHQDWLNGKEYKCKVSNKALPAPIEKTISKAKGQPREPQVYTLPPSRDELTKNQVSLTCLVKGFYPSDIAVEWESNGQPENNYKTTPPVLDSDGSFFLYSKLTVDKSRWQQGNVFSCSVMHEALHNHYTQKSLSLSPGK", "experiment": "ELISA; Tie2-Fc coated at 1 ug/mL; signal at 100 ng/mL antibody vs convergence value on the parent", "experimental": "as §1"}, "[5]": {"molecular_target": "T5, Human Tie2 (1-452)A6-Fc (human, UniProt Q02763 23-452)", "T5 construct": "range 1-452", "T5 sequence (Q02763 other isoform, or with tags, fused parts or gaps limits assumed, form in doubt)": "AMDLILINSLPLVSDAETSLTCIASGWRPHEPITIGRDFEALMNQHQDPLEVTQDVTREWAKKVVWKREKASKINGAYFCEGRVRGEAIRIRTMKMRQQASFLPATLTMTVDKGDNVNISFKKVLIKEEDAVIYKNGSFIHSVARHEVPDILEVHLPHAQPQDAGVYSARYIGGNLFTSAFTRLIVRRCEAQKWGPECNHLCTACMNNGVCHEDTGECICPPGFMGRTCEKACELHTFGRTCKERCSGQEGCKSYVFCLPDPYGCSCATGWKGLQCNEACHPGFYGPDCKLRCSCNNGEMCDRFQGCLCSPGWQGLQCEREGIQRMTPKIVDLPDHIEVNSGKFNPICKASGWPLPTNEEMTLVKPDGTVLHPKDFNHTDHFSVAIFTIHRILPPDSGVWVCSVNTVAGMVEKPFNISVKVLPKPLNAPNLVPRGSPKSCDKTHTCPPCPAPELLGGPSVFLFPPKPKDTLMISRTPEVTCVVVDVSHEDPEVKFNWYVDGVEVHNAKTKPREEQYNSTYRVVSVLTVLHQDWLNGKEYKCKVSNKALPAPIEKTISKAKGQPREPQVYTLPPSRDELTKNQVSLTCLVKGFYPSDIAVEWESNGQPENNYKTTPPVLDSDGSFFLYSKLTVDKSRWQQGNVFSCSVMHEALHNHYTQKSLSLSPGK", "experiment": "ELISA; Tie2-Fc coated at 1 ug/mL; signal at 100 ng/mL antibody vs convergence value on the parent", "experimental": "as §1"}, "[6]": {"molecular_target": "T6, human Tie2 (1-452)-Fc chimeric protein (human, UniProt Q02763 23-452)", "T6 construct": "range 1-452; The stated range 1-452 begins at residue 1 of the precursor", "T6 sequence (Q02763 other isoform, or with tags, fused parts or gaps mutant limits assumed, form in doubt)": "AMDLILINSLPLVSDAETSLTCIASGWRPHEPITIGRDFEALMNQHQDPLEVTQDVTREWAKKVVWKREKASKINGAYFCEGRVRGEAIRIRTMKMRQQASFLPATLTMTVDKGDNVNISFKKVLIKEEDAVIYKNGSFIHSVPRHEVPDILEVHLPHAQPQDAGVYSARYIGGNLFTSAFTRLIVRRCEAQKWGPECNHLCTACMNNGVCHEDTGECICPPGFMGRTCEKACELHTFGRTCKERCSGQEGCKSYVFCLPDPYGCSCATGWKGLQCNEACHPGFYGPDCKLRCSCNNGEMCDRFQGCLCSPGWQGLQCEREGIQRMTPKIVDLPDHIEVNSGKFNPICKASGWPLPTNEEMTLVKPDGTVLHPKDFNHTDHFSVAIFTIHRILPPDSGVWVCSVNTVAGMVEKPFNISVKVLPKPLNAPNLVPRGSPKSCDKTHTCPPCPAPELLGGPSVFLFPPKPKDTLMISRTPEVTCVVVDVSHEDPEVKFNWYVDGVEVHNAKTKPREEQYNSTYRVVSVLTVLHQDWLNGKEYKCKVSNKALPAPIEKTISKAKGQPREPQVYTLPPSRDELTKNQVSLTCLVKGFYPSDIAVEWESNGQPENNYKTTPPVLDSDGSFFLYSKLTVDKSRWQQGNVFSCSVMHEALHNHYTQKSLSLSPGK", "experiment": "ELISA; Tie2-Fc coated at 1 ug/mL; signal at 100 ng/mL antibody vs convergence value on the parent", "experimental": "as §1"}, "[7]": {"molecular_target": "T7, Human Tie2 (1-452)r2-Fc (human, UniProt Q02763 23-452)", "T7 construct": "range 1-452", "T7 sequence (Q02763 other isoform, or with tags, fused parts or gaps limits assumed, form in doubt)": "as the sequence (Q02763 other isoform, or with tags, fused parts or gaps mutant limits assumed, form in doubt) above, with D150A, I151A counted along it", "experiment": "SPR (Biacore T200); Tie2-Fc captured on anti-human IgG (Fc), Fab at 50 nM; mean of 3", "experimental": "(§2) SPR analysis was carried out in order to evaluate the binding activity of the human Tie2 (1-452)-Fc chimera protein and 23 mutant proteins thereof to the fully human 2-16A2-Fab.\n(§3) For SPR analysis, Biacore T200 (GE Healthcare) was used. An anti-human IgG (Fc) antibody (Human Antibody Capture Kit, GE Healthcare) was fixed onto a CM5 sensor chip. The human Tie2 (1-452)-Fc chimeric protein and 23 mutant proteins thereof, diluted with HBS-EP (GE Healthcare) at 5 μg/mL, were each allowed for immobilization, and the capture-amount was measured. Thereafter, the fully human 2-16A2-Fab diluted with HBS-EP to 50 nM, the binding amount thereof to the human Tie2 (1-452)-Fc chimeric protein and 23 mutant proteins thereof were measured. Further, by dividing the binding amount with the capture-amount, the binding amount of the antibody in the unit immobilized antigen (hereinafter referred to as a binding ratio) was calculated. The arithmetic mean of three experiments and the relative value of the binding ratio of each mutant proteins when the binding ratio of the human Tie2 (1-452)-Fc chimeric protein was taken as 100% are shown in Table 7."}, "[8]": {"molecular_target": "T8, Human Tie2 (1-452)r4-Fc (human, UniProt Q02763 23-452)", "T8 construct": "range 1-452", "T8 sequence (Q02763 other isoform, or with tags, fused parts or gaps limits assumed, form in doubt)": "as the sequence (Q02763 other isoform, or with tags, fused parts or gaps mutant limits assumed, form in doubt) above, with H146A counted along it", "experiment": "SPR (Biacore T200); Tie2-Fc captured on anti-human IgG (Fc), Fab at 50 nM; mean of 3", "experimental": "as §2, §3"}, "[9]": {"molecular_target": "T9, Human Tie2 (1-452)g2-Fc (human, UniProt Q02763 23-452)", "T9 construct": "range 1-452", "T9 sequence (Q02763 other isoform, or with tags, fused parts or gaps limits assumed, form in doubt)": "as the sequence (Q02763 other isoform, or with tags, fused parts or gaps mutant limits assumed, form in doubt) above, with R170A counted along it", "experiment": "SPR (Biacore T200); Tie2-Fc captured on anti-human IgG (Fc), Fab at 50 nM; mean of 3", "experimental": "as §2, §3"}, "[10]": {"molecular_target": "T4, Human Tie2 (1-452)A5-Fc", "experiment": "SPR (Biacore T200); Tie2-Fc captured on anti-human IgG (Fc), Fab at 50 nM; mean of 3", "experimental": "as §2, §3"}, "[11]": {"molecular_target": "T5, Human Tie2 (1-452)A6-Fc", "experiment": "SPR (Biacore T200); Tie2-Fc captured on anti-human IgG (Fc), Fab at 50 nM; mean of 3", "experimental": "as §2, §3"}, "[12]": {"molecular_target": "T6, human Tie2 (1-452)-Fc chimeric protein", "experiment": "SPR (Biacore T200); Tie2-Fc captured on anti-human IgG (Fc), Fab at 50 nM; mean of 3", "experimental": "as §2, §3"}}}
{"binder": "B1", "values": [{"measurement": "Relative value (%) of luminescent intensity", "setting": "[1]", "value": 95, "unit": "%"}, {"measurement": "Relative value (%) of luminescent intensity", "setting": "[2]", "value": 98, "unit": "%"}, {"measurement": "Relative value (%) of luminescent intensity", "setting": "[3]", "value": 100, "unit": "%"}, {"measurement": "Relative value (%) of luminescent intensity", "setting": "[4]", "value": 98, "unit": "%"}, {"measurement": "Relative value (%) of luminescent intensity", "setting": "[5]", "value": 99, "unit": "%"}, {"measurement": "Relative value (%) of luminescent intensity", "setting": "[6]", "value": 98, "unit": "%"}]}
{"binder": "B2", "values": [{"measurement": "Binding ratio", "setting": "[7]", "value": 0.28}, {"measurement": "Relative value (%) of binding ratio (human Tie2 (1-452)-Fc chimeric protein = 100%)", "setting": "[7]", "value": 98, "unit": "%"}, {"measurement": "Binding ratio", "setting": "[8]", "value": 0.33}, {"measurement": "Relative value (%) of binding ratio (human Tie2 (1-452)-Fc chimeric protein = 100%)", "setting": "[8]", "value": 113, "unit": "%"}, {"measurement": "Binding ratio", "setting": "[9]", "value": 0.03}, {"measurement": "Relative value (%) of binding ratio (human Tie2 (1-452)-Fc chimeric protein = 100%)", "setting": "[9]", "value": 9, "unit": "%"}, {"measurement": "Binding ratio", "setting": "[10]", "value": 0.39}, {"measurement": "Relative value (%) of binding ratio (human Tie2 (1-452)-Fc chimeric protein = 100%)", "setting": "[10]", "value": 135, "unit": "%"}, {"measurement": "Binding ratio", "setting": "[11]", "value": 0.31}, {"measurement": "Relative value (%) of binding ratio (human Tie2 (1-452)-Fc chimeric protein = 100%)", "setting": "[11]", "value": 109, "unit": "%"}, {"measurement": "Binding ratio", "setting": "[12]", "value": 0.29}, {"measurement": "Relative value (%) of binding ratio (human Tie2 (1-452)-Fc chimeric protein = 100%)", "setting": "[12]", "value": 100, "unit": "%"}]}
